{"source": "paper PMC8557468", "about": "“Evolution-Based Protein Engineering for Antifungal Peptide Improvement” (Molecular Biology and Evolution, 2021)", "key": {"[1]": {"details": "n = 3", "method": "To assess serum stability, peptides were incubated in fresh mouse serum for 0, 12, and 24 h at 37 °C, respectively. Residual activities were measured by inhibition zone assays against C. albicans B16. For thermal stability assay, E15K was incubated at 50 °C for 1–5 days, 80 °C or 100 °C for 5 min. CD analysis and inhibition zone assay were used to evaluate a potential impact of heating on the structure and function of the peptide."}, "[2]": {"system": "mouse erythrocytes", "experiment": "Hemolytic assay", "format": "cell-based", "details": "50 μM peptide, 37 °C, 15 min, absorbance 570 nm; n = 3", "method": "Hemolysis of mouse erythrocytes by peptides was assayed according to the standard method ([Gao et al. 2009]). In brief, the cells were incubated with various concentrations of peptides (6.25, 12.5, 25, or 50 μM) at 37 °C for 15 min. Absorbance was measured at 570 nm with the SpectraMax i3x Multi-Mode microplate reader (Molecular Devices). The percentage of hemolysis was determined as (Apep−Ablank)/(Atot−Ablank)×100. Ablank and Apep were evaluated in the absence or presence of peptides and 100% hemolysis (Atot) was obtained in the presence of 1% Triton X-100. Meucin-18 ([Gao et al. 2009]) was used positive control."}}, "note": "Positions of bridges follow the written chain, without caps; N, C: chain ends. No end group written: not given here."}
{"sequence": "DVKSGHYKGPCYHDKNCNGVCRDEGYKSGHCSRWGGACWCDT (disulfide 11-31, 17-38, 21-40) [E15K]", "values": [{"measurement": "serum stability (residual antifungal activity)", "setting": "[1]; fresh mouse serum, 37 °C, 0, 12 and 24 h, residual activity by inhibition zone against C. albicans B16, 1.0 nmol", "value": "retained its complete antifungal activity"}, {"measurement": "thermal stability (activity and structure after heating)", "setting": "[1]; in water at 50 °C for 1–5 days or 80–100 °C for 5 min, CD spectra and inhibition zone assay", "value": "its activity and structure were not obviously changed"}, {"measurement": "hemolysis on mouse erythrocytes", "setting": "[2]", "value": "no detectable hemolysis"}]}
